Measured values reported in US20260216326A1 (PROMETHEUS BIOSCIENCES, published 2026).
Changes are numbered by the printed parent chain.

Columns and labels:
[1] = biological target: T1, human TL1A (human, UniProt O95150 72-251, limits assumed); experiment: ELISA titration on plate-coated human TL1A, unpurified culture supernatant
T1 construct: also called tumor necrosis factor-like cytokine 1A; TNFSF15
T1 sequence (looked up): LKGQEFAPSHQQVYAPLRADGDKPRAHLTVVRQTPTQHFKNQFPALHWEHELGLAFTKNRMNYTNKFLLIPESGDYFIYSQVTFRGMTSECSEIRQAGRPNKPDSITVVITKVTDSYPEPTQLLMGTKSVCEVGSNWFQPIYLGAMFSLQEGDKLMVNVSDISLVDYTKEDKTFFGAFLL

[2] = biological target: T2, human TL1A (Fitzgerald #30R-AT070) (human, UniProt O95150 72-251, limits assumed); experiment: ELISA titration, coated human TL1A, culture supernatant
T2 construct: Coated on the ELISA plate at 1 ug/mL; also called TNFSF15
T2 sequence (looked up): T1 sequence (looked up)

B1: A221 (antibody, IgG1, V domains shown)
VH: QVQLVQSGAEVKKPGASVKVSCKASGFDIQDTYMHWVKQRPGQGLEWMGRIDPASGHTKYDPKFQVRATITRDTSTSTAYLELSSLRSEDTAVYYCARSGGLPDVWGQGTTVTVSS
VL: EIVLTQSPGTLSLSPGERATLSCRASSSVSYMYWYQQKPGQAPRPLIYATSNLASGIPDRFSGSGSGTDFTLTISRLEPEDFAVYYCQQWEGNPRTFGGGTKLEIK
With B1 as the binder, how does the Kd [1] read?
The Kd was 0.051 nM.

B2: A52 (antibody, human IgG1, V domains shown)
VH: B1 VH with M48I, R72T
VL: B1 VL with L13A, L21M, L46W, I57V, E91S
notes: human IgG1/kappa (pFuse vectors), culture supernatant
How did the Kd [2] turn out when B2 was run?
The Kd was 0.027 nM.

B3: A54 (antibody, human IgG1, V domains shown)
VH: B1 VH with Q1D, M48I, R72T
VL: B1 VL with L13A, L21M, L46W, I57V, F70Y, L77V, E91S
notes: as for B2
With B3 as the binder, how does the Kd [2] read?
Its Kd is 0.083 nM.

B4: A56 (antibody, human IgG1, V domains shown)
VH: B1 VH with M48I, R72T
VL: B1 VL with L13A, L21M, L46W, F70Y, L77V, E91S
notes: as for B2
With B4 as the binder, how does the Kd [2] read?
The Kd was 0.116 nM.

B5: A55 (antibody, human IgG1, V domains shown)
VH: B1 VH with Q1E, M48I, R72T
VL: B1 VL with L13A, L21M, L46W, I57V, F70Y, L77V, E91S
notes: as for B2
How did the Kd [2] turn out when B5 was run?
Its Kd is 0.091 nM.

B6: A53 (antibody, human IgG1, V domains shown)
VH: B1 VH with M48I, A68V, I70M, R72T
VL: B1 VL with L13A, L21M, L46W, I57V, F70Y, L77V, E91S
notes: as for B2
For B6, which Kd [2] is on record?
Its Kd is 0.126 nM.

B7: A165 (antibody, IgG1, V domains shown)
VH: B1 VH with K38R, R40A, M48I, R72T
VL: B1 VL with L46W
How did the Kd [1] turn out when B7 was run?
Its Kd is 0.059 nM.

B8: A170 (antibody, IgG1, V domains shown)
VH: B1 VH with K38R, R40A, T58I, V66G, A68V, I70M, L81M, V105W
VL: B1 VL with L46W
How did the Kd [1] turn out when B8 was run?
Its Kd is 0.049 nM.

B9: A182 (antibody, IgG1, V domains shown)
VH: B1 VH with R40A, M48I, R72T
VL: B1 VL with P45L
Which Kd [1] does the source give for B9 here?
The Kd was 0.067 nM.

B10: A163 (antibody, IgG1, V domains shown)
VH: B1 VH with K38R, A68V, R72T, L81M
VL: B1 VL with P45L, E91K
How did the Kd [1] turn out when B10 was run?
Its Kd is 0.051 nM.

B11: A174 (antibody, IgG1, V domains shown)
VH: B1 VH with K38R, R40A, D52E, T58I, V66G, I70M, L81M, V105W
VL: B1 VL with L46W
With B11 as the binder, how does the Kd [1] read?
Its Kd is 0.043 nM.

B12: A173 (antibody, IgG1, V domains shown)
VH: B1 VH with R40A, D52E, T58I, V66G, I70M, A79V, L81M, V105W
VL: B1 VL with L46W
Which Kd [1] does the source give for B12 here?
Its Kd is 0.04 nM.

B13: A160 (antibody, IgG1, V domains shown)
VH: B1 VH with A68V, I70M
VL: B1 VL with P45L, E91K
With B13 as the binder, how does the Kd [1] read?
The Kd was 0.094 nM.

B14: A156 (antibody, IgG1, V domains shown)
VH: B1 VH with K38R, R40A, D52E, T58I, I70M, A79V, L81M, V105W
VL: B1 VL with L46W
For B14, which Kd [1] is on record?
The Kd was 0.094 nM.

B15: A179 (antibody, IgG1, V domains shown)
VH: B1 VH with R40A, D52E, T58I, V66G, I70M, A79V, L81M, V105W
VL: B1 VL
Which Kd [1] does the source give for B15 here?
The Kd was 0.079 nM.

B16: A175 (antibody, IgG1, V domains shown)
VH: B1 VH with R40A, T58I, V66G, A68V, I70M, A79V, L81M, V105W
VL: B1 VL
How did the Kd [1] turn out when B16 was run?
The Kd was 0.045 nM.

B17: A159 (antibody, IgG1, V domains shown)
VH: B1 VH with A68V, L81M
VL: B1 VL with P45L, E91K
B17 was tested. Which Kd [1] did it give?
Its Kd is 0.069 nM.

B18: A167 (antibody, IgG1, V domains shown)
VH: B1 VH with M48I, A68V
VL: B1 VL with L46W
B18 was tested. Which Kd [1] did it give?
Its Kd is 0.042 nM.

B19: A157 (antibody, IgG1, V domains shown)
VH: B1 VH with A68V, A79V
VL: B1 VL with P45L, E91K
For B19, which Kd [1] is on record?
Its Kd is 0.069 nM.

B20: A177 (antibody, IgG1, V domains shown)
VH: B1 VH with K38R, R40A, T58I, V66G, R72T, A79V, L81M, V105W
VL: B1 VL
With B20 as the binder, how does the Kd [1] read?
Its Kd is 0.052 nM.

B21: A166 (antibody, IgG1, V domains shown)
VH: B1 VH with M48I, A68V, I70M, R72T
VL: B1 VL with L46W
For B21, which Kd [1] is on record?
Its Kd is 0.057 nM.

B22: A169 (antibody, IgG1, V domains shown)
VH: B1 VH with R40A, T58I, V66G, A68V, I70M, A79V, L81M, V105W
VL: B1 VL with L46W
Which Kd [1] does the source give for B22 here?
The Kd was 0.047 nM.

B23: A180 (antibody, IgG1, V domains shown)
VH: B1 VH with K38R, R40A, D52E, T58I, V66G, I70M, L81M, V105W
VL: B1 VL
B23 was tested. Which Kd [1] did it give?
The Kd was 0.058 nM.

B24: A158 (antibody, IgG1, V domains shown)
VH: B1 VH with A68V, A79V, L81M
VL: B1 VL with P45L, E91K
For B24, which Kd [1] is on record?
Its Kd is 0.066 nM.

B25: A162 (antibody, IgG1, V domains shown)
VH: B1 VH with K38R, A68V, R72T, A79V, L81M
VL: B1 VL with P45L, E91K
With B25 as the binder, how does the Kd [1] read?
The Kd was 0.075 nM.

B26: A176 (antibody, IgG1, V domains shown)
VH: B1 VH with K38R, R40A, T58I, V66G, A68V, I70M, L81M, V105W
VL: B1 VL
For B26, which Kd [1] is on record?
Its Kd is 0.048 nM.

B27: A181 (antibody, IgG1, V domains shown)
VH: B1 VH with K38R, M48I, R72T
VL: B1 VL with P45L
How did the Kd [1] turn out when B27 was run?
The Kd was 0.06 nM.

B28: A168 (antibody, IgG1, V domains shown)
VH: B1 VH with M48I, I70M
VL: B1 VL with L46W
B28 was tested. Which Kd [1] did it give?
The Kd was 0.062 nM.

B29: A184 (antibody, IgG1, V domains shown)
VH: B1 VH with M48I
VL: B1 VL with P45L
B29 was tested. Which Kd [1] did it give?
The Kd was 0.061 nM.

B30: A172 (antibody, IgG1, V domains shown)
VH: B1 VH with K38R, R40A, T58I, V66G, I70M, A79V, L81M, V105W
VL: B1 VL with L46W
With B30 as the binder, how does the Kd [1] read?
The Kd was 0.04 nM.

B31: A161 (antibody, IgG1, V domains shown)
VH: B1 VH with K38R, A68V, R72T, A79V
VL: B1 VL with P45L, E91K
How did the Kd [1] turn out when B31 was run?
The Kd was 0.072 nM.

B32: A164 (antibody, IgG1, V domains shown)
VH: B1 VH with K38R, A68V, I70M, R72T
VL: B1 VL with P45L, E91K
Which Kd [1] does the source give for B32 here?
The Kd was 0.058 nM.

B33: A171 (antibody, IgG1, V domains shown)
VH: B1 VH with K38R, R40A, T58I, V66G, R72T, A79V, L81M, V105W
VL: B1 VL with L46W
For B33, which Kd [1] is on record?
Its Kd is 0.05 nM.

B34: A178 (antibody, IgG1, V domains shown)
VH: B1 VH with K38R, R40A, T58I, V66G, I70M, A79V, L81M, V105W
VL: B1 VL
How did the Kd [1] turn out when B34 was run?
Its Kd is 0.043 nM.

B35: A183 (antibody, IgG1, V domains shown)
VH: B1 VH with R72T
VL: B1 VL with P45L
For B35, which Kd [1] is on record?
The Kd was 0.065 nM.
